Test results taken from PMC4176334.

Tests used:
[1] = biological target: M. tuberculosis RNAP core;SigA;RbpA (Mycobacterium tuberculosis;Mycobacterium tuberculosis;Mycobacterium tuberculosis) (UniProt P9WGZ1+P9WGY9+P9WGY7+P9WGY5+P9WGI1+P9WHJ5); test: EMSA
[2] = biological target: M. tuberculosis RNAP core;SigA (Mycobacterium tuberculosis;Mycobacterium tuberculosis) (UniProt P9WGZ1+P9WGY9+P9WGY7+P9WGY5+P9WGI1); test: EMSA
[3] = biological target: T1, M. tuberculosis RNAP core;SigJ;RbpA (Mycobacterium tuberculosis;Mycobacterium tuberculosis H37Rv?;Mycobacterium tuberculosis) (UniProt P9WGZ1+P9WGY9+P9WGY7+P9WGY5+L0TCG5+P9WHJ5); test: KMnO4 footprinting
[4] = biological target: T2, M. tuberculosis RNAP core;SigJ (Mycobacterium tuberculosis;Mycobacterium tuberculosis H37Rv?) (UniProt P9WGZ1+P9WGY9+P9WGY7+P9WGY5+L0TCG5); test: KMnO4 footprinting
[5] = biological target: T1, M. tuberculosis RNAP core;SigJ;RbpA (Mycobacterium tuberculosis;Mycobacterium tuberculosis H37Rv?;Mycobacterium tuberculosis); test: DNase I footprinting
[6] = biological target: T2, M. tuberculosis RNAP core;SigJ (Mycobacterium tuberculosis;Mycobacterium tuberculosis H37Rv?); test: DNase I footprinting

Measured: binding

TTGAGTTCTCAAACAACACGCTTGCTTGTTTCCGCCCGCTTCGGGGCAACCCTGCCAGTCTAATACAAATCCGGCAATGGAGTCAAGACCAGGTTCGGTCATCCATAGATATCCATAGGTGACCGTCGCCTAACAGCATACCCGTTCGAT (double strand) [rrnAP3 promoter]
binds: [1] | [2]

GCCCTCCCGCCGACCCATGCTGGAATTCATAACATCAAGGACGAGACAGCCCCGCCGAATGTGACAGCAACCGGCGATTTCAGCGCTCGGCGC (double strand) [sigIP promoter]
binds: [3] | [4] | [5] | [6]
